These are literature values, as cited in article PMC11087986.

Like-named read-outs stand apart in the source and are kept apart here.

What is called Kd is the free concentration of one partner at which half of the binding sites on the other are occupied at equilibrium, for simple one-to-one binding.

In series [1] the target is RBM39 RRM1-RRM2 (Homo sapiens) (UniProt Q14498).
Series [2] has the same target. The source holds these as a separate data set.
Series [3] shares this target. The source holds these as a separate data set.

UniProt Q14498, sequence (Q14498 153-328): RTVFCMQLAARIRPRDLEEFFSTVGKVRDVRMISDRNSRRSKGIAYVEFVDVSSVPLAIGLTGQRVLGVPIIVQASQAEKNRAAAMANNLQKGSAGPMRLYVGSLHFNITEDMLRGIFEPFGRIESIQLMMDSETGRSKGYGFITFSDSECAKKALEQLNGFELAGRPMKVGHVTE

DCAF15 (from UniProt Q66K64): the dissociation constant (Kd) was 120 nM in series [1], 4600 nM in series [2] and 160 nM in series [3].
